T1: human FcγRIIb extracellular domain with C-terminal His tag (human, UniProt P31994 43-217)
T1 construct: extracellular domain; For crystals it was expressed with kifunensine and trimmed with Endo F1; also called FcgRIIb; FcγRIIb extracellular region
T1 sequence (looked up): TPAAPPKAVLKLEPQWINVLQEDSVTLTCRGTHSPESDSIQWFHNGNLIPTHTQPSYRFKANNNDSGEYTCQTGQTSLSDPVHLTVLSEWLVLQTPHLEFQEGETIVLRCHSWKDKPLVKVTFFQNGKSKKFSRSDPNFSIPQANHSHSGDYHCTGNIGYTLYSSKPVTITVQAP

B1: IL6R-BP488/IL6R-L (antibody, human IgG1, kappa)
heavy: QVQLQESGPGLVKPSETLSLTCAVSGHSISHDHAWSWVRQPPGEGLEWIGFISYSGITNYNPSLQGRVTISRDNSKNTLYLQMNSLRAEDTAVYYCARSLARTTAMDYWGEGTLVTVSSASTKGPSVFPLAPSSKSTSGGTAALGCLVKDYFPEPVTVSWNSGALTSGVHTFPAVLQSSGLYSLSSVVTVPSSSLGTQTYICNVNHKPSNTKVDKKVEPKSCDKTHTCPPCPAPDLLGDDSVFLFPPKPKDTLMISRTPEVTCVVIDVAEEDGEVKFNWYVDGVEVHNAKTKPREEQDNSTYRVVSVLTVLHQDWLNGKEYKCKVSNKALPRPIEKTISKAKGQPREPQVYTLPPSRDELTKNQVSLTCLVKGFYPSDIAVEWESNGQPENNYKTTPPVLDSDGSFFLYSKLTVDKSRWQQGNVFSCSVMHEALHNHYTQESLSLSP
light: not shown
B2: IL6R-BP494/IL6R-L (antibody, human IgG1, kappa)
heavy: QVQLQESGPGLVKPSETLSLTCAVSGHSISHDHAWSWVRQPPGEGLEWIGFISYSGITNYNPSLQGRVTISRDNSKNTLYLQMNSLRAEDTAVYYCARSLARTTAMDYWGEGTLVTVSSASTKGPSVFPLAPSSKSTSGGTAALGCLVKDYFPEPVTVSWNSGALTSGVHTFPAVLQSSGLYSLSSVVTVPSSSLGTQTYICNVNHKPSNTKVDKKVEPKSCDKTHTCPPCPAPELLGDDSVFLFPPKPKDTLMISRTPEVTCVVVDVAEEDGEVKFNWYVDGVEVHNAKTKPREEQDNSTYRVVSVLTVLHQDWLNGKEYKCKVSNKALPRPIEKTISKAKGQPREPQVYTLPPSRDELTKNQVSLTCLVKGFYPSDIAVEWESNGQPENNYKTTPPVLDSDGSFFLYSKLTVDKSRWQQGNVFSCSVMHEALHNHYTQESLSLSP
light: not shown
B3: IL6R-BP490/IL6R-L (antibody, human IgG1, kappa)
heavy: QVQLQESGPGLVKPSETLSLTCAVSGHSISHDHAWSWVRQPPGEGLEWIGFISYSGITNYNPSLQGRVTISRDNSKNTLYLQMNSLRAEDTAVYYCARSLARTTAMDYWGEGTLVTVSSASTKGPSVFPLAPSSKSTSGGTAALGCLVKDYFPEPVTVSWNSGALTSGVHTFPAVLQSSGLYSLSSVVTVPSSSLGTQTYICNVNHKPSNTKVDKKVEPKSCDKTHTCPPCPAPELLGDDSVFLFPPKPKDTLMISRTPEVTCVVIDVAEEDGEVKFNWYVDGVEVHNAKTKPREEQYNSTYRVVSVLTVLHQDWLNGKEYKCKVSNKALPRPIEKTISKAKGQPREPQVYTLPPSRDELTKNQVSLTCLVKGFYPSDIAVEWESNGQPENNYKTTPPVLDSDGSFFLYSKLTVDKSRWQQGNVFSCSVMHEALHNHYTQESLSLSP
light: not shown
B4: IL6R-BP498/IL6R-L (antibody, human IgG1, kappa)
heavy: QVQLQESGPGLVKPSETLSLTCAVSGHSISHDHAWSWVRQPPGEGLEWIGFISYSGITNYNPSLQGRVTISRDNSKNTLYLQMNSLRAEDTAVYYCARSLARTTAMDYWGEGTLVTVSSASTKGPSVFPLAPSSKSTSGGTAALGCLVKDYFPEPVTVSWNSGALTSGVHTFPAVLQSSGLYSLSSVVTVPSSSLGTQTYICNVNHKPSNTKVDKKVEPKSCDKTHTCPPCPAPDLLGDDSVFLFPPKPKDTLMISRTPEVTCVVIDVAEEDGEVKFNWYVDGVEVHNAKTKPREEQYNSTYRVVSVLTVLHQDWLNGKEYKCKVSNKALPRPIEKTISKAKGQPREPQVYTLPPSRDELTKNQVSLTCLVKGFYPSDIAVEWESNGQPENNYKTTPLVLDSDGSFFLYSKLTVDKSRWQQGNVFSCSVMHEALHNHYTQESLSLSP
light: not shown
B5: IL6R-BP491/IL6R-L (antibody, human IgG1, kappa)
heavy: QVQLQESGPGLVKPSETLSLTCAVSGHSISHDHAWSWVRQPPGEGLEWIGFISYSGITNYNPSLQGRVTISRDNSKNTLYLQMNSLRAEDTAVYYCARSLARTTAMDYWGEGTLVTVSSASTKGPSVFPLAPSSKSTSGGTAALGCLVKDYFPEPVTVSWNSGALTSGVHTFPAVLQSSGLYSLSSVVTVPSSSLGTQTYICNVNHKPSNTKVDKKVEPKSCDKTHTCPPCPAPELLGDDSVFLFPPKPKDTLMISRTPEVTCVVIDVAEEDGEVKFNWYVDGVEVHNAKTKPREEQDNSTYRVVSVLTVLHQDWLNGKEYKCKVSNKALPRPIEKTISKAKGQPREPQVYTLPPSRDELTKNQVSLTCLVKGFYPSDIAVEWESNGQPENNYKTTPPVLDSDGSFFLYSKLTVDKSRWQQGNVFSCSVMHEALHNHYTQESLSLSP
light: not shown

From patent US20150299296A1 (Chugai, published 2015) come the findings set out here.

The target in the test is T1, human FcγRIIb extracellular domain with …. As to the kind of experiment: SPR. Background: SPR reads the build-up and loss of mass on a sensor chip optically.
As for B1, the binding result is given as “binds”. In the case of B2, the binding result is recorded as “binds”.

On to B3, for which the binding result was “binds”.

Consider B4, for which the binding result is “binds”. Consider B5, for which the binding result was “binds”.
